Biological target: human VWF (human)
Test: ELISA

Sequence of human VWF (human) (P04275 whole entry): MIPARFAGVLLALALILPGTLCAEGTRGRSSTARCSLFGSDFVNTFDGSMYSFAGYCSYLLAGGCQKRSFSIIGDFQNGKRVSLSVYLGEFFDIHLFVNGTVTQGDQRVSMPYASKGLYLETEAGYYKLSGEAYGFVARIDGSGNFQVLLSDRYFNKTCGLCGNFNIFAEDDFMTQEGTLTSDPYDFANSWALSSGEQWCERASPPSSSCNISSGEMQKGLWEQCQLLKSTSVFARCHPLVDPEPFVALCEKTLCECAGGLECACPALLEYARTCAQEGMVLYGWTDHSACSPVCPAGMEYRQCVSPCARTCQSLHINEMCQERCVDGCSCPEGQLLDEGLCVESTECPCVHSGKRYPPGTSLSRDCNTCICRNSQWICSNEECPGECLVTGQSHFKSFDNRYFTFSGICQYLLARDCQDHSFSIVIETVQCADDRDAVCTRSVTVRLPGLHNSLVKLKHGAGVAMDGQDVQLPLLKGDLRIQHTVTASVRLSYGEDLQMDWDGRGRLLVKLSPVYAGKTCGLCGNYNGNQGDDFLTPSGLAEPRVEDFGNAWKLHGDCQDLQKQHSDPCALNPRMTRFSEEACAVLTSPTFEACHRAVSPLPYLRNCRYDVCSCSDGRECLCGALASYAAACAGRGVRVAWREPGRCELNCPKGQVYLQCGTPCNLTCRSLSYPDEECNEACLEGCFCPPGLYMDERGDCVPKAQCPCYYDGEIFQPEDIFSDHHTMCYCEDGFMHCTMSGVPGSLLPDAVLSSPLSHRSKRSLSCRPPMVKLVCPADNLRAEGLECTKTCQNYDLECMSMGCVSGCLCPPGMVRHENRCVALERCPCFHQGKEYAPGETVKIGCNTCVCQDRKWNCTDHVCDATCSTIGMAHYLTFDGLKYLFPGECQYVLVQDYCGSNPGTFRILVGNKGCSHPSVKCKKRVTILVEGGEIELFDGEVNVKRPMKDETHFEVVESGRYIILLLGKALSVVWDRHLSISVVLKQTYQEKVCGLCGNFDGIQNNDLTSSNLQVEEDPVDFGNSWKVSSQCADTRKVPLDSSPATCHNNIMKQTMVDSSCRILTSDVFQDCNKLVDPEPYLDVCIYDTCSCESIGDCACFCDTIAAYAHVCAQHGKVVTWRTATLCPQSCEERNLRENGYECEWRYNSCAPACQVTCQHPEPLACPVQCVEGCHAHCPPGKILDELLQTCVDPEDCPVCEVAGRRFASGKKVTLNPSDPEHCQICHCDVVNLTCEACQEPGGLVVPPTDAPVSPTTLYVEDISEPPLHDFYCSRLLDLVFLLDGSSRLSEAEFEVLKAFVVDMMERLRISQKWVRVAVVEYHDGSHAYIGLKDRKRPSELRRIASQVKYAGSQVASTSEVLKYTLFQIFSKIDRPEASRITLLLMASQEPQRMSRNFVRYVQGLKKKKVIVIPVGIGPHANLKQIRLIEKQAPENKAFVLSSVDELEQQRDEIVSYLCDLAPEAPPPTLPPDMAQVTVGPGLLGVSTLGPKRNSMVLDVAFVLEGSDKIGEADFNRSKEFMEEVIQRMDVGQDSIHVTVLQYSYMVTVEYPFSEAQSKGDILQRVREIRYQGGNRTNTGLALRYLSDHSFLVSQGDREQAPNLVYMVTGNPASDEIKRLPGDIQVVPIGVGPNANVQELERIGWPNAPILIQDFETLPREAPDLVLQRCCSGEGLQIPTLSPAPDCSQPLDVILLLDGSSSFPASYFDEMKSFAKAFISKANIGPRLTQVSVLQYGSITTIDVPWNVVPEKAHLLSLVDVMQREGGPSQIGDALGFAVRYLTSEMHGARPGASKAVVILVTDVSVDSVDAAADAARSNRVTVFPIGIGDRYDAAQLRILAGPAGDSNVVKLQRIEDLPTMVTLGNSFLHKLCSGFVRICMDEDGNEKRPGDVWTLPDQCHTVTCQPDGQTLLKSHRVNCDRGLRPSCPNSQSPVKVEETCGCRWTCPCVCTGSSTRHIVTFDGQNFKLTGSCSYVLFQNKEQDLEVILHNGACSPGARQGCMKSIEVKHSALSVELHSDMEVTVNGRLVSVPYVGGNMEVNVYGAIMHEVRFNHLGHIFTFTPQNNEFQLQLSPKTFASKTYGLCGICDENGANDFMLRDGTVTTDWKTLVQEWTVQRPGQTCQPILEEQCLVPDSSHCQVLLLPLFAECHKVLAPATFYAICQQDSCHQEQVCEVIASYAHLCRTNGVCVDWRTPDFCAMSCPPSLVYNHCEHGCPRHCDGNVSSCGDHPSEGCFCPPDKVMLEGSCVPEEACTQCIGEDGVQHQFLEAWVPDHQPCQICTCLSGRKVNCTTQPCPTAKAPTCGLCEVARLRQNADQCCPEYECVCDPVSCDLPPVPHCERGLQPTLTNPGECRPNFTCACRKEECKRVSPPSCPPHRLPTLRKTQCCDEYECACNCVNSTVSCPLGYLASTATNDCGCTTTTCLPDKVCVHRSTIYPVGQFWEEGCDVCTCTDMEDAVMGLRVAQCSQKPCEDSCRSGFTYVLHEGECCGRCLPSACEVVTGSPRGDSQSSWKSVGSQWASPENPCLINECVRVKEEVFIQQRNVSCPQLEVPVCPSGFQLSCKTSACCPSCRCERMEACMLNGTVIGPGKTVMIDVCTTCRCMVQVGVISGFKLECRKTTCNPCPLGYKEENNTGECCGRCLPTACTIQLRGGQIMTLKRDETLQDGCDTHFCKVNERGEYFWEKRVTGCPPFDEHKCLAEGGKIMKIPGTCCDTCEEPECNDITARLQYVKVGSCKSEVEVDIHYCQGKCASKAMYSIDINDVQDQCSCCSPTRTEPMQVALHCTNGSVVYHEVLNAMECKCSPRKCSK

| Binder | EC50 |
| --- | --- |
| 33D03_H2-L4 (antibody, V domains shown) VH: QVQLVQSGAEVKKPGASVKVSCKASGYTFTDYYLNWVRQAPGQRLEWMGIINPYNGGTNYNQRFKGRVTITRDTSASTAYMELSSLRSEDTAVYYCASEGLRTWFTYWGQGTLVTVSS VL: DIVMTQSPDSLAVSLGERATISCKSSQSLSNSGNQKIYLAWYQQKPGQPPKLLIYGASSRESGVPDRFSGSGSEIDFTLTISSLQAEDVAVYYCQNDHSHPFTFGQGTKLEIK | 0.0381 µg/mL |
| 33D03_H2-L1 (antibody, V domains shown) VH: QVQLVQSGAEVKKPGASVKVSCKASGYTFTDYYLNWVRQAPGQRLEWMGIINPYNGGTNYNQRFKGRVTITRDTSASTAYMELSSLRSEDTAVYYCASEGLRTWFTYWGQGTLVTVSS VL: DIVMTQSPDSLAVSLGERATINCKSSQSLSNSGNQKIYLAWYQQKPGQPPKLLIYGASSRESGVPDRFSGSGSGTDFTLTISSLQAEDVAVYYCQNDHSHPFTFGQGTKLEIK | 0.0373 µg/mL |
| 33D03_H4-L2 (antibody, V domains shown) VH: QVQLVQSGAEVKKPGASVKVSCKASGYTFTDYYLNWVRQAPGQRLEWMGIINPYNGGTNYNQRFKGRVTITVDKSSSTAYMELSSLRSEDTAVYYCASEGLRTWFTYWGQGTLVTVSS VL: DIVMTQSPDSLAVSLGERATISCKSSQSLSNSGNQKIYLAWYQQKPGQPPKLLIYGASSRESGVPDRFSGSGSGTDFTLTISSLQAEDVAVYYCQNDHSHPFTFGQGTKLEIK | 0.0354 µg/mL |
| 25B05_H4-L2 (antibody, V domains shown) VH: EVQLVQSGAEVKKPGASVKVSCKASGYTFTDYFMNWVRQAPGQRLEWMGVINPHNGGTSYSQKFQGRVTLTVDKSSSTAYMELSSLRSEDTAVYYCARRPLGSDYWGQGTTVTVSS VL: DIVMTQSPSSVSASVGDRVTITCKASQNVGTAVAWYQQKPGKAPKLLIYSASSRYTGVPSRFSGSGSGTDFTLTISSLQPEDFATYYCQQYSSYPLTFGQGTKLEIK | 0.0357 µg/mL |
| 25B05_H2-L3 (antibody, V domains shown) VH: QVQLVQSGAEVKKPGASVKVSCKASGYTFTDYFMNWVRQAPGQRLEWMGVINPHNGGTSYSQKFQGRVTITVDKSSSTAYMELSSLRSEDTAVYYCARRPLGSDYWGQGTTVTVSS VL: DIQMTQSPSSVSASVGDRVTITCKASQNVGTAVAWYQQKPGKAPKLLIYSASSRYTEVPDRFSGSGSGTDFTLTISSLQPEDFATYYCQQYSSYPLTFGQGTKLEIK | 0.0416 µg/mL |
| 25B05_H3-L4 (antibody, V domains shown) VH: EVQLVQSGAEVKKPGASVKVSCKASGYTFTDYFMNWVRQAPGQRLEWMGVINPHNGGTSYSQKFQGRVTITVDKSSSTAYMELSSLRSEDTAVYYCARRPLGSDYWGQGTTVTVSS VL: DIVMTQSPSSVSASVGDRVTITCKASQNVGTAVAWYQQKPGKAPKLLIYSASSRYTEVPDRFSGSGSGTDFTLTISSLQPEDFATYYCQQYSSYPLTFGQGTKLEIK | 0.0379 µg/mL |
| 25B05_H3-L2 (antibody, V domains shown) VH: EVQLVQSGAEVKKPGASVKVSCKASGYTFTDYFMNWVRQAPGQRLEWMGVINPHNGGTSYSQKFQGRVTITVDKSSSTAYMELSSLRSEDTAVYYCARRPLGSDYWGQGTTVTVSS VL: DIVMTQSPSSVSASVGDRVTITCKASQNVGTAVAWYQQKPGKAPKLLIYSASSRYTGVPSRFSGSGSGTDFTLTISSLQPEDFATYYCQQYSSYPLTFGQGTKLEIK | 0.0516 µg/mL |

Now from value to binder:

| EC50 | Binder |
| --- | --- |
| 0.0483 µg/mL | 33D03_H3-L3 (antibody, V domains shown) VH: QVQLVQSGAEVKKPGASVKVSCKASGYTFTDYYLNWVRQAPGQRLEWMGIINPYNGGTNYSQKFQGRVTITVDKSSSTAYMELSSLRSEDTAVYYCASEGLRTWFTYWGQGTLVTVSS VL: DIVMTQSPDSLAVSLGERATINCKSSQSLSNSGNQKIYLAWYQQKPGQPPKLLIYGASSRESGVPDRFSGSGSEIDFTLTISSLQAEDVAVYYCQNDHSHPFTFGQGTKLEIK |
| 0.0365 µg/mL | 33D03_H4-L4 (antibody, V domains shown) VH: QVQLVQSGAEVKKPGASVKVSCKASGYTFTDYYLNWVRQAPGQRLEWMGIINPYNGGTNYNQRFKGRVTITVDKSSSTAYMELSSLRSEDTAVYYCASEGLRTWFTYWGQGTLVTVSS VL: DIVMTQSPDSLAVSLGERATISCKSSQSLSNSGNQKIYLAWYQQKPGQPPKLLIYGASSRESGVPDRFSGSGSEIDFTLTISSLQAEDVAVYYCQNDHSHPFTFGQGTKLEIK |
| 0.0394 µg/mL | 33D03_H2-L2 (antibody, V domains shown) VH: QVQLVQSGAEVKKPGASVKVSCKASGYTFTDYYLNWVRQAPGQRLEWMGIINPYNGGTNYNQRFKGRVTITRDTSASTAYMELSSLRSEDTAVYYCASEGLRTWFTYWGQGTLVTVSS VL: DIVMTQSPDSLAVSLGERATISCKSSQSLSNSGNQKIYLAWYQQKPGQPPKLLIYGASSRESGVPDRFSGSGSGTDFTLTISSLQAEDVAVYYCQNDHSHPFTFGQGTKLEIK |
| 0.0597 µg/mL | 33D03_H1-L3 (antibody, V domains shown) VH: QVQLVQSGAEVKKPGASVKVSCKASGYTFTDYYLNWVRQAPGQRLEWMGIINPYNGGTNYSQKFQGRVTITRDTSASTAYMELSSLRSEDTAVYYCASEGLRTWFTYWGQGTLVTVSS VL: DIVMTQSPDSLAVSLGERATINCKSSQSLSNSGNQKIYLAWYQQKPGQPPKLLIYGASSRESGVPDRFSGSGSEIDFTLTISSLQAEDVAVYYCQNDHSHPFTFGQGTKLEIK |
| 0.0371 µg/mL | 33D03_H4-L3 (antibody, V domains shown) VH: QVQLVQSGAEVKKPGASVKVSCKASGYTFTDYYLNWVRQAPGQRLEWMGIINPYNGGTNYNQRFKGRVTITVDKSSSTAYMELSSLRSEDTAVYYCASEGLRTWFTYWGQGTLVTVSS VL: DIVMTQSPDSLAVSLGERATINCKSSQSLSNSGNQKIYLAWYQQKPGQPPKLLIYGASSRESGVPDRFSGSGSEIDFTLTISSLQAEDVAVYYCQNDHSHPFTFGQGTKLEIK |
| 0.0371 µg/mL | 33D03_H2-L3 (antibody, V domains shown) VH: QVQLVQSGAEVKKPGASVKVSCKASGYTFTDYYLNWVRQAPGQRLEWMGIINPYNGGTNYNQRFKGRVTITRDTSASTAYMELSSLRSEDTAVYYCASEGLRTWFTYWGQGTLVTVSS VL: DIVMTQSPDSLAVSLGERATINCKSSQSLSNSGNQKIYLAWYQQKPGQPPKLLIYGASSRESGVPDRFSGSGSEIDFTLTISSLQAEDVAVYYCQNDHSHPFTFGQGTKLEIK |
| 0.0498 µg/mL | 33D03_par (antibody, V domains shown) VH: EVQLQQSRPVLVKPGASVKMSCKASGYTFTDYYLNWVKQSPGKRLEWIGIINPYNGGTNYNQRFKGKATLTVDKSSSTAYMELNSLTSEDSAVYFCASEGLRTWFTYWGQGTLVTVSA VL: DIVMTQSPSSLSVSAGEKVTMSCKSSQSLSNSGNQKIYLAWYQQKPGQPPKLLIYGASSRESGVPDRFTGSGSEIDFTLTISSVQAEDLAVYYCQNDHSHPFTFGSGTKLEIK |
| 0.0564 µg/mL | 25B05_H2-L2 (antibody, V domains shown) VH: QVQLVQSGAEVKKPGASVKVSCKASGYTFTDYFMNWVRQAPGQRLEWMGVINPHNGGTSYSQKFQGRVTITVDKSSSTAYMELSSLRSEDTAVYYCARRPLGSDYWGQGTTVTVSS VL: DIVMTQSPSSVSASVGDRVTITCKASQNVGTAVAWYQQKPGKAPKLLIYSASSRYTGVPSRFSGSGSGTDFTLTISSLQPEDFATYYCQQYSSYPLTFGQGTKLEIK |
| 0.0271 µg/mL | 25B05_H4-L3 (antibody, V domains shown) VH: EVQLVQSGAEVKKPGASVKVSCKASGYTFTDYFMNWVRQAPGQRLEWMGVINPHNGGTSYSQKFQGRVTLTVDKSSSTAYMELSSLRSEDTAVYYCARRPLGSDYWGQGTTVTVSS VL: DIQMTQSPSSVSASVGDRVTITCKASQNVGTAVAWYQQKPGKAPKLLIYSASSRYTEVPDRFSGSGSGTDFTLTISSLQPEDFATYYCQQYSSYPLTFGQGTKLEIK |

Reference: patent US20260317443 (published 2026)
